Each block holds one substance with its values, some of them ahead of it.
Experiments:
[1] = target: FcγR on THP-1 cells (FcγRI and FcγRII); experiment: flow cytometry on cells; THP-1 cells, 100 nM uncomplexed IgG, 30 min on ice, PBSF; goat anti-human IgG R-PE; median fluorescence intensity
[2] = target: FcγR on THP-1 cells (FcγRI and FcγRII); experiment: flow cytometry on cells; THP-1 cells; ~100 nM IgG pre-complexed with 10 nM CD3ε-BSA (CD3ε peptide 21–47 on BSA) 20 min RT, highly avid; 30 min on ice; goat anti-human IgG PE; median fluorescence intensity
[3] = target: FcγR on THP-1 cells (FcγRI and FcγRII); experiment: flow cytometry on cells; THP-1 cells, 100 nM uncomplexed IgG, 30 min on ice, PBSF; goat anti-human IgG R-PE; median fluorescence intensity; remark: listed apart in the source
[4] = target: ADI-26906 IgG1 LALE-D265A (L234A/L235E/D265A) (human); experiment: bead-based flow cytometry (Dynal bead assay); biotinylated CD3ε peptide on streptavidin Dyna Beads, saturated with antibody; beads incubated with C1q alone or with C1q and human complement C3, 25 min RT, PBSF; anti-C1q APC and anti-C3 PE
ADI-26906 IgG1 LALE-D265A (L234A/L235E/D265A) (human), sequence (heavy, as listed by the source, chain 1 of 2): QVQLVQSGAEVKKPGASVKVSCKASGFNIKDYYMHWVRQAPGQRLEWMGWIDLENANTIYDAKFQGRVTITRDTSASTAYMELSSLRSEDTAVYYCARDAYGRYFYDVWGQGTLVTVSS
ADI-26906 IgG1 LALE-D265A (L234A/L235E/D265A) (human), sequence (light, as listed by the source, chain 2 of 2): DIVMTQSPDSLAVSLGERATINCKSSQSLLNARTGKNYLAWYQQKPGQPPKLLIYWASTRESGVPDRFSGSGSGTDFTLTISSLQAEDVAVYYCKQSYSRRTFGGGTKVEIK

[5] = target: ADI-26906 IgG1 LALA-D265A (L234A/L235A/D265A) (human); experiment: as above
[6] = target: ADI-26906 IgG1 LALE-L309V (L234A/L235E/L309V) (human); experiment: SPR; Biacore 8K or 8K+, 25 °C, HBS-EP+ pH 7.4; IgG captured (400–425 RU) by goat anti-human Fc on CM5; human FcγRI 100 nM injected; response units at one concentration
ADI-26906 IgG1 LALE-L309V (L234A/L235E/L309V) (human), sequence (heavy, as listed by the source, chain 1 of 2): as the sequence (heavy, as listed by the source, chain 1 of 2) above
ADI-26906 IgG1 LALE-L309V (L234A/L235E/L309V) (human), sequence (light, as listed by the source, chain 2 of 2): as the sequence (light, as listed by the source, chain 2 of 2) above

[7] = target: ADI-26906 IgG1 LALA-L309V (L234A/L235A/L309V) (human); experiment: as above
ADI-26906 IgG1 LALA-L309V (L234A/L235A/L309V) (human), sequence (heavy, as listed by the source, chain 1 of 2): as the sequence (heavy, as listed by the source, chain 1 of 2) above
ADI-26906 IgG1 LALA-L309V (L234A/L235A/L309V) (human), sequence (light, as listed by the source, chain 2 of 2): as the sequence (light, as listed by the source, chain 2 of 2) above

[8] = target: ADI-26906 IgG1 LALA-L328A (L234A/L235A/L328A) (human); experiment: as above
ADI-26906 IgG1 LALA-L328A (L234A/L235A/L328A) (human), sequence (heavy, as listed by the source, chain 1 of 2): as the sequence (heavy, as listed by the source, chain 1 of 2) above
ADI-26906 IgG1 LALA-L328A (L234A/L235A/L328A) (human), sequence (light, as listed by the source, chain 2 of 2): as the sequence (light, as listed by the source, chain 2 of 2) above

[9] = target: ADI-26906 IgG1 LALA-A327G (L234A/L235A/A327G) (human); experiment: as above
[10] = target: ADI-26906 IgG1 LALE-K322A (L234A/L235E/K322A) (human); experiment: as above
ADI-26906 IgG1 LALE-K322A (L234A/L235E/K322A) (human), sequence (heavy, as listed by the source, chain 1 of 2): as the sequence (heavy, as listed by the source, chain 1 of 2) above
ADI-26906 IgG1 LALE-K322A (L234A/L235E/K322A) (human), sequence (light, as listed by the source, chain 2 of 2): as the sequence (light, as listed by the source, chain 2 of 2) above

[11] = target: ADI-26906 IgG1 LALA-D270A (L234A/L235A/D270A) (human); experiment: as above
[12] = target: ADI-26906 IgG1 LALA-H268Q (L234A/L235A/H268Q) (human); experiment: as above
ADI-26906 IgG1 LALA-H268Q (L234A/L235A/H268Q) (human), sequence (heavy, as listed by the source, chain 1 of 2): as the sequence (heavy, as listed by the source, chain 1 of 2) above
ADI-26906 IgG1 LALA-H268Q (L234A/L235A/H268Q) (human), sequence (light, as listed by the source, chain 2 of 2): as the sequence (light, as listed by the source, chain 2 of 2) above

[13] = target: ADI-26906 IgG1 LALE-A330S (L234A/L235E/A330S) (human); experiment: as above
[14] = target: ADI-26906 IgG1 LALA-A330S (L234A/L235A/A330S) (human); experiment: as above
ADI-26906 IgG1 LALA-A330S (L234A/L235A/A330S) (human), sequence (heavy, as listed by the source, chain 1 of 2): as the sequence (heavy, as listed by the source, chain 1 of 2) above
ADI-26906 IgG1 LALA-A330S (L234A/L235A/A330S) (human), sequence (light, as listed by the source, chain 2 of 2): as the sequence (light, as listed by the source, chain 2 of 2) above

[15] = target: ADI-26906 IgG1 LALA-Y296F (L234A/L235A/Y296F) (human); experiment: as above
ADI-26906 IgG1 LALA-Y296F (L234A/L235A/Y296F) (human), sequence (heavy, as listed by the source, chain 1 of 2): as the sequence (heavy, as listed by the source, chain 1 of 2) above
ADI-26906 IgG1 LALA-Y296F (L234A/L235A/Y296F) (human), sequence (light, as listed by the source, chain 2 of 2): as the sequence (light, as listed by the source, chain 2 of 2) above

[16] = target: ADI-26906 IgG1 LALE-L328A (L234A/L235E/L328A) (human); experiment: as above
ADI-26906 IgG1 LALE-L328A (L234A/L235E/L328A) (human), sequence (heavy, as listed by the source, chain 1 of 2): as the sequence (heavy, as listed by the source, chain 1 of 2) above
ADI-26906 IgG1 LALE-L328A (L234A/L235E/L328A) (human), sequence (light, as listed by the source, chain 2 of 2): as the sequence (light, as listed by the source, chain 2 of 2) above

[17] = target: ADI-26906 IgG1 L234A/L235E (human); experiment: as above
ADI-26906 IgG1 L234A/L235E (human), sequence (heavy, as listed by the source, chain 1 of 2): as the sequence (heavy, as listed by the source, chain 1 of 2) above
ADI-26906 IgG1 L234A/L235E (human), sequence (light, as listed by the source, chain 2 of 2): as the sequence (light, as listed by the source, chain 2 of 2) above

[18] = target: ADI-26906 IgG1 LALA-A330S/P331S (L234A/L235A/A330S/P331S) (human); experiment: as above
ADI-26906 IgG1 LALA-A330S/P331S (L234A/L235A/A330S/P331S) (human), sequence (heavy, as listed by the source, chain 1 of 2): as the sequence (heavy, as listed by the source, chain 1 of 2) above
ADI-26906 IgG1 LALA-A330S/P331S (L234A/L235A/A330S/P331S) (human), sequence (light, as listed by the source, chain 2 of 2): as the sequence (light, as listed by the source, chain 2 of 2) above

[19] = target: ADI-26906 IgG1 L234A/L235A (human); experiment: as above
[20] = target: ADI-26906 IgG1 LALA-L309A (L234A/L235A/L309A) (human); experiment: as above
ADI-26906 IgG1 LALA-L309A (L234A/L235A/L309A) (human), sequence (heavy, as listed by the source, chain 1 of 2): as the sequence (heavy, as listed by the source, chain 1 of 2) above
ADI-26906 IgG1 LALA-L309A (L234A/L235A/L309A) (human), sequence (light, as listed by the source, chain 2 of 2): as the sequence (light, as listed by the source, chain 2 of 2) above

[21] = target: ADI-26906 IgG1 LALE-A330S/P331S (L234A/L235E/A330S/P331S) (human); experiment: as above
ADI-26906 IgG1 LALE-A330S/P331S (L234A/L235E/A330S/P331S) (human), sequence (heavy, as listed by the source, chain 1 of 2): as the sequence (heavy, as listed by the source, chain 1 of 2) above
ADI-26906 IgG1 LALE-A330S/P331S (L234A/L235E/A330S/P331S) (human), sequence (light, as listed by the source, chain 2 of 2): as the sequence (light, as listed by the source, chain 2 of 2) above

[22] = target: ADI-26906 IgG1 LALA-K322A (L234A/L235A/K322A) (human); experiment: as above
ADI-26906 IgG1 LALA-K322A (L234A/L235A/K322A) (human), sequence (heavy, as listed by the source, chain 1 of 2): as the sequence (heavy, as listed by the source, chain 1 of 2) above
ADI-26906 IgG1 LALA-K322A (L234A/L235A/K322A) (human), sequence (light, as listed by the source, chain 2 of 2): as the sequence (light, as listed by the source, chain 2 of 2) above

[23] = target: ADI-26906 IgG1 LALA-P331S (L234A/L235A/P331S) (human); experiment: as above
[24] = target: ADI-26906 IgG1 LALE-H268Q (L234A/L235E/H268Q) (human); experiment: as above
ADI-26906 IgG1 LALE-H268Q (L234A/L235E/H268Q) (human), sequence (heavy, as listed by the source, chain 1 of 2): as the sequence (heavy, as listed by the source, chain 1 of 2) above
ADI-26906 IgG1 LALE-H268Q (L234A/L235E/H268Q) (human), sequence (light, as listed by the source, chain 2 of 2): as the sequence (light, as listed by the source, chain 2 of 2) above

[25] = target: ADI-26906 IgG1 LALE-P331S (L234A/L235E/P331S) (human); experiment: as above
ADI-26906 IgG1 LALE-P331S (L234A/L235E/P331S) (human), sequence (heavy, as listed by the source, chain 1 of 2): as the sequence (heavy, as listed by the source, chain 1 of 2) above
ADI-26906 IgG1 LALE-P331S (L234A/L235E/P331S) (human), sequence (light, as listed by the source, chain 2 of 2): as the sequence (light, as listed by the source, chain 2 of 2) above

[26] = target: ADI-26906 IgG1 LALE-D270A (L234A/L235E/D270A) (human); experiment: as above
ADI-26906 IgG1 LALE-D270A (L234A/L235E/D270A) (human), sequence (heavy, as listed by the source, chain 1 of 2): as the sequence (heavy, as listed by the source, chain 1 of 2) above
ADI-26906 IgG1 LALE-D270A (L234A/L235E/D270A) (human), sequence (light, as listed by the source, chain 2 of 2): as the sequence (light, as listed by the source, chain 2 of 2) above

[27] = target: ADI-26906 IgG1 LALE-L309A (L234A/L235E/L309A) (human); experiment: as above
ADI-26906 IgG1 LALE-L309A (L234A/L235E/L309A) (human), sequence (heavy, as listed by the source, chain 1 of 2): as the sequence (heavy, as listed by the source, chain 1 of 2) above
ADI-26906 IgG1 LALE-L309A (L234A/L235E/L309A) (human), sequence (light, as listed by the source, chain 2 of 2): as the sequence (light, as listed by the source, chain 2 of 2) above

Substance: ADI-26906 IgG1 L234A/L235A/G237A (antibody)
MFI [1]: 150 MFI

Substance: ADI-26906 IgG1 LALA-L309V (L234A/L235A/L309V) (antibody)
MFI [2]: 4850 MFI

Substance: ADI-26906 IgG1 L234A/L235K (antibody)
MFI [1]: 140 MFI

Substance: ADI-26906 IgG1 L234A/L235E (antibody)
MFI [2]: 5300 MFI
MFI [1]: 192 MFI
MFI [3]: 127 MFI

Substance: ADI-26906 IgG1 LALA-L328A (L234A/L235A/L328A) (antibody)
MFI [2]: 6420 MFI

Substance: ADI-26906 IgG1 LALA-K322A (L234A/L235A/K322A) (antibody)
MFI [2]: 4390 MFI

Substance: ADI-26906 IgG1 LALE-L328A (L234A/L235E/L328A) (antibody)
MFI [2]: 7040 MFI

Substance: ADI-26906 IgG1 LALE-A330S (L234A/L235E/A330S) (antibody)
MFI [2]: 2260 MFI

Substance: human FcγRI (CD64) (from UniProt P12314 16-374) (receptor)
response (RU) [6]: 4.9 RU
response (RU) [7]: 25.2 RU
response (RU) [8]: 13.6 RU
response (RU) [9]: 14.3 RU
response (RU) [10]: 4.6 RU
response (RU) [11]: 9.7 RU
response (RU) [12]: 22.9 RU
response (RU) [13]: 3.3 RU
response (RU) [14]: 19.9 RU
response (RU) [15]: 19.1 RU
response (RU) [16]: 3.5 RU
response (RU) [17]: 3.8 RU
response (RU) [18]: 15.8 RU
response (RU) [19]: 23.5 RU
response (RU) [20]: 21.6 RU
response (RU) [21]: 2.6 RU
response (RU) [22]: 19.9 RU
response (RU) [23]: 17.7 RU
response (RU) [24]: 4.3 RU
response (RU) [25]: 3.3 RU
response (RU) [26]: 1.8 RU
response (RU) [27]: 4.2 RU

Substance: ADI-26906 IgG1 L234F/L235E (antibody)
MFI [1]: 369 MFI

Substance: ADI-26906 IgG1 L234F/L235K (antibody)
MFI [1]: 386 MFI

Substance: ADI-26906 IgG1 LALE-L309A (L234A/L235E/L309A) (antibody)
MFI [2]: 2760 MFI

Substance: ADI-26906 IgG1 LALA-A327G (L234A/L235A/A327G) (antibody)
MFI [2]: 7010 MFI

Substance: ADI-26906 IgG1 L234A/G237A (antibody)
MFI [1]: 184 MFI

Results, then the substance that gave them:

MFI [2]: 546 MFI
Substance: ADI-26906 IgG1 LALE-D270A (L234A/L235E/D270A) (antibody)

MFI [1]: 176 MFI
Substance: ADI-26906 IgG1 L234E/L235K (antibody)

MFI [2]: 3810 MFI
Substance: ADI-26906 IgG1 LALA-Y296F (L234A/L235A/Y296F) (antibody)

MFI [2]: 4790 MFI
Substance: ADI-26906 IgG1 LALA-L309A (L234A/L235A/L309A) (antibody)

MFI [2]: 2270 MFI
Substance: ADI-26906 IgG1 LALA-D270A (L234A/L235A/D270A) (antibody)

C1q Dynal FACS MFI [4]: 2280 MFI
C1q Dynal FACS MFI [5]: 1950 MFI
Substance: human complement C1q (complex)

MFI [2]: 4440 MFI
Substance: ADI-26906 IgG1 LALA-A330S (L234A/L235A/A330S) (antibody)

MFI [2]: 4000 MFI
Substance: ADI-26906 IgG1 LALE-H268Q (L234A/L235E/H268Q) (antibody)

MFI [2]: 1760 MFI
Substance: ADI-26906 IgG1 LALE-P331S (L234A/L235E/P331S) (antibody)

MFI [1]: 192 MFI
Substance: ADI-26906 IgG1 L235A/G237A (antibody)

MFI [2]: 2320 MFI
Substance: ADI-26906 IgG1 LALE-K322A (L234A/L235E/K322A) (antibody)

MFI [2]: 3840 MFI
Substance: ADI-26906 IgG1 LALA-A330S/P331S (L234A/L235A/A330S/P331S) (antibody)

MFI [2]: 4220 MFI
Substance: ADI-26906 IgG1 LALA-P331S (L234A/L235A/P331S) (antibody)

MFI [2]: 5270 MFI
MFI [1]: 491 MFI
MFI [3]: 270 MFI
Substance: ADI-26906 IgG1 L234A/L235A (antibody)

MFI [2]: 1390 MFI
Substance: ADI-26906 IgG1 LALE-A330S/P331S (L234A/L235E/A330S/P331S) (antibody)

MFI [2]: 4800 MFI
Substance: ADI-26906 IgG1 LALA-H268Q (L234A/L235A/H268Q) (antibody)

MFI [2]: 3540 MFI
Substance: ADI-26906 IgG1 LALE-L309V (L234A/L235E/L309V) (antibody)
